Laboratory results taken from publication PMC12578283 (Protein & Cell, 2025).
Values joined by “and” are separate entries in the source; they are usually repeats but may differ in a detail not shown here. Identical values can stand only once.

T1: p15 protein of African swine fever virus (African swine fever virus, UniProt Q65179 1-158)
T1 chain: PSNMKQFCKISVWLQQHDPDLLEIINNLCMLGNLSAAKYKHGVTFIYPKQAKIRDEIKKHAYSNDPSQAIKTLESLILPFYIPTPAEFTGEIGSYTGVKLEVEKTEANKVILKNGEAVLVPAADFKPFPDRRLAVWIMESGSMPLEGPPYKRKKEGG


Legend:
[1] = biological target: p15 protein of African swine fever virus (African swine fever virus) (UniProt Q65179); assay: cryo-EM structure
[2] = biological target: p15 protein of African swine fever virus (African swine fever virus, UniProt Q65179); assay: SPR; conditions: both partners purified
[3] = biological target: T1, p15 protein of African swine fever virus; assay: SPR

Row | Molecule | stoichiometry N [1] | Kd [2] | koff [3]
1 | p15 protein of African swine fever virus (from UniProt Q65179 1-158) (natural protein) | 3 and 6 | – | –
2 | monoclonal antibody 4E2 (antibody, V domains shown) VH: QVQLHQPGSVLVRPGASVKLSCKASGYTFTSSWMHWAKQRPGQGLEWIGEIHPKSGNTNYNENFKGKATLTVDTSSSTAYVDLSSLASEDSAVYYCARSGGTYYYAMDSWGQGTSVTVSS VL: DIQMTQTTSSLSASLGDRVTISCRASQDTSNYLNWYQQKPDGTVKLLIYYTSRLHSGVPSRFSGSGSGTDFSLTINTLEQEDFATYFCQQGNTSPYTFGGGTKLEIK | – | 6.39 nM | 0.000503 s⁻¹
